US20220288223

Legend:
[1] = tested on: RACPP with substrate GVAYSGA
[2] = tested on: RACPP with substrate PLGC(me)AG
[3] = tested on: RACPP with substrate RLQLK(Ac)L
[4] = tested on: RACPP with substrate TGRAAA
[5] = tested on: RACPP with substrate TIAHLA
[6] = tested on: RACPP with substrate YGRAAA
[7] = tested on: RACPP with substrate PLGLEEA

Sequence of MMP-9 (chain, as listed by the source): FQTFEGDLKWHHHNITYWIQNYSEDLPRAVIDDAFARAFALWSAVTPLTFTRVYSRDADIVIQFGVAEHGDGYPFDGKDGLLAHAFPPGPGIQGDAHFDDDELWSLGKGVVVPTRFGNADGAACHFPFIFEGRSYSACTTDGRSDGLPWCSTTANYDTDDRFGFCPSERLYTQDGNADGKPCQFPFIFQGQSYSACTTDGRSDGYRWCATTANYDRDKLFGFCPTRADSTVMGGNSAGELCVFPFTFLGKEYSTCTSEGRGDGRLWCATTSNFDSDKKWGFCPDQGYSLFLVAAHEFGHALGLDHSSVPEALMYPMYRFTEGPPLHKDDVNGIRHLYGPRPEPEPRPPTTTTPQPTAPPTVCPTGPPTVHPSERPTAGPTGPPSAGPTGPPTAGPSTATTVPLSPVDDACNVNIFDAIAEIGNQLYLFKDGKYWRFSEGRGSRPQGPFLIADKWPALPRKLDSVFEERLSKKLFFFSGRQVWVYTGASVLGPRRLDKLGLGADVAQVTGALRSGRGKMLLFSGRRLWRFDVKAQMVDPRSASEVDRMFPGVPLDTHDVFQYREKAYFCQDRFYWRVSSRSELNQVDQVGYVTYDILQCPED

Elastase
Kcat/Km [1]: 4550 | Kcat/Km [2]: 4000 | Kcat/Km [3]: 13400 | Kcat/Km [4]: 349 | Kcat/Km [5]: 18200 | Kcat/Km [6]: 943

MMP-9
Kcat/Km [2]: 13500 | Kcat/Km [7]: 1480
